Residue numbers refer to the chain shown, from its start.
B1: FD 11A (antibody, V domains shown)
VH: EVQLVESGGGVVQPGRSLRLSCAASGFTFSSYGMHWVRQAPGKGLEWVAVIWYDGSNKYYADSVKGRFTISRDNSKNTLYLQMNSLRAEDTAVYYCAKGPDILTGYYNYYYYGMDVWGQGTMVTVSS
VL: QSVLTQPPSVSGAPGQRVTISCTGSSSNIGAGYDVHWYQQLPGTAPKLLIYGNSNRPSGVPDRFSGSKSGTSASLAITGLQAEDEADYYCQSYDSSLSGFYVVFGGGTKLTVL
notes: source: HEK293T, transfected; culture supernatant or purified
B2: FD 11C (antibody, V domains shown)
VH: EVQLLESGPGLVKPSETLSLTCTVSGGSISSSSYYWGWIRQPPGKGLEWIGSIYYSGSTYYNPSLKSRVTISVDTSKNQFSLKLSSVTAADTAVYYCAREYYYGSETKKYYYYYGMDVWGQGTTVTVSS
VL: not shown
notes: as for B1
B3: FD 7C (antibody, V domains shown)
VH: QLQLQESGPGLVKPSETLSLTCTVSGGSISSYYWSWIRQPPGKGLEWIGYIYYSGSTNYNPSLKSRVTISVDTSKNQFSLKLSSVTAADTAVYYCARDYRFGELFGRFAWFDPWGQGTLVTVSS
VL: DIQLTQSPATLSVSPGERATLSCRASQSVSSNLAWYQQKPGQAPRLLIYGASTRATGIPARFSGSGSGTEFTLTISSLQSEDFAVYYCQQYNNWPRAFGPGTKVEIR
notes: as for B1
B4: FD 11E (antibody, V domains shown)
VH: EVQLVESGGGLVKPGGSLRLSCAASGFTFSSYSMNWVRQAPGKGLEWVSSISSSSSYIYYADSVKGRFTISRDNAKNSLYLQMNSLRAEDTAVYYCASLAAAGPETYYYYGMDVWGQGTMVTVSS
VL: not shown
notes: as for B1
B5: FD 1E (antibody, V domains shown)
VH: B4 VH with V5L
VL: not shown
notes: as for B1
B6: FI 3A (antibody, V domains shown)
VH: EVQLLESGGGLIQPGGSLRLSCAASGFTVSSNYMSWVRQAPGKGLEWVSVIYSGGSTYYADSVKGRFTISRDNSKNTLYLQMNSLRAEDTAVYYCARDHVRPGMNIWGQGTMVTVSS
VL: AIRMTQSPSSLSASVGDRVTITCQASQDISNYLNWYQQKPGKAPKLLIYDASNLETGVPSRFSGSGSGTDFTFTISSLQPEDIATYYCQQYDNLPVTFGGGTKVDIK
notes: as for B1
B7: FD 10A (antibody, V domains shown)
VH: EVQLVESGGGLVQPGGSLRLSCAASGFTFSSYWMHWVRQAPGKGLVWVSRINSDGSSTSYADSVKGRFTISRDNAKNTLYLQMNSLRAEDTAVYYCANMAFDIWGQGTMVTVSS
VL: not shown
notes: as for B1
B8: FD 8B (antibody, V domains shown)
VH: EVQLLESGAEVKKPGASVKVSCKVSGYTLTELSMHWVRQAPGKGLEWMGGFDPEDGETIYAQKFQGRVTMTEDTSTDTAYMELSSLRSEDTAVYYCATAAAINCSSTSCYYYYYYYGMDVWGQGTTVTVSS
VL: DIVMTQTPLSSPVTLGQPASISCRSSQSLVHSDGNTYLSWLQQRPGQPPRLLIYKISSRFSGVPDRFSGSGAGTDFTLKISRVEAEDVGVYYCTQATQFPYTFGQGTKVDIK
notes: as for B1
B9: FJ 1C (antibody, V domains shown)
VH: QVQLQESGPGLVKPSETLSLTCTVSGYSISSGYYWGWIRQPPGKGLEWIGSIYHSGSTYYNPSLKSRVTISVDTSKNQFSLKLSSVTAADTAVYYCARDKALLWFGELFTNLFDYWGQGTLVTVSS
VL: QSALTQPASVSGSPGQSITISCTGTSSDVGGYNYVSWYQQHPGKAPKLMIYEVSNRPSGVSNRFSGSKSGNTASLTISGLQAEDEANYYCSSYTSSSTLVFGGGTKLTVL
notes: as for B1
B10: FD 5D (antibody, V domains shown)
VH: EVQLVESGGGLVQPGGSLRLSCAASGFTFSSYSMNWVRQAPGKGLEWVSYISSSSSTIYYADPVKGRFTISRDNAKNSLYLQMNSLRAEDTAVYYCASPGGITAAGTSVLFGYYGMDVWGQGTMVTVSS
VL: not shown
notes: as for B1
B11: FG 12C (antibody, V domains shown)
VH: EVQLVESGGGLVQPGRSLRLSCAASGFTFDDYAMHWVRQAPGKGLEWVSGISWNSGSIGYADSVKGRFTISRDNAKNSLYLQMNSLRAEDTALYYCAKDMRVHDYGDYYFDYWGQGTLVTVSS
VL: SYELTQPPSVSVAPGKTARITCGGNNIGSKSVHWYQQKPGQAPVLVIYYDSDRPSGIPERFSGSNSGNTATLTISRVEAGDEADYYCQVWDSSSDHPVFGGGTKLTVL
notes: as for B1
B12: FN 8C (antibody, V domains shown)
VH: QVQLVESGGGVVQPGRSLRLSCAASGFTFSSYGMHWVRQAPGKGLEWVAVISYDGSNKYYADTVKGRFTISRDNSKNTLYLQMNSLRAEDTAVYYCARERTYYDILTGYRHYYGMDVWGQGTTVTVSS
VL: B11 VL with K16Q, I47V, Y49D, P97W
notes: as for B1
B13: FM 1A (antibody, V domains shown)
VH: EVQLLESGGGVVQPGRSLRLSCAASGFTFSSYGMHWVRQAPGKGLEWVAVIWYDGSNKYYADSVKGRFTISRDNSKNTLYLQMNSLRAEDTAVYYCAREGAVGATRGFDYWGQGTLVTVSS
VL: B11 VL with K16Q, I47V, Y49D, H96Q, P97G
notes: as for B1
B14: FJ 4E (antibody, V domains shown)
VH: QVQLVESGPGLVKPSETLSLTCSVSGGSISSGTYYWSWIRQQPGKGLEWIGYIYNTGRPYYNPFLKSRITISVDSSKNQFSLKLTSVTAADTAVYYCARDEYDSSDSGIQGHWFDPWGQGTLVTVSS
VL: AIRMTQSPSSLSASVGDRVTITCRTSQNINSFLNWYQQKPGKGPNLLIYGAFTLQSGVPSRFSGSGSGTDFTLTISSLQPEDFATYFCQQSYSTPWTFGQGTKVEIK
notes: as for B1
B15: EW 9B (antibody, V domains shown)
VH: EVQLVQSGAEVKKPGASVKVSCKASGYTFTSYYMHWVRQAPGQGLEWMGIINPSGGSTSYAQKFQGRVTMTRDTSTSTVYMELSSLRSEDTAVYYCAREDGVVPAANLMISLEDYYYYGMDVWGQGTTVTVSS
VL: EIVLTQSPATLSLSPGERATLSCRASQSVSSYLAWYQQKPGQAPRLLIYDASNRATGIPARFSGSGSGTDFTLTISSLEPEDFAVYYCQQRSNWPLTFGGGTKVDIK
notes: as for B1
B16: FD 1D (antibody, V domains shown)
VH: EVQLVESGGGVVQPGRSLRLSCAASGFTFSSYAMHWVRQAPGKGLEWVAVISYDGSNKYYADSVKGRFTISRDNSKNTLYLQMNSLRAEDTAVYYCARAGSGSYLNWFDPWGQGTLVTVSS
VL: B15 VL with L96I, G100Q, K103R, V104L, D105E
notes: as for B1
B17: FN 12A (antibody, V domains shown)
VH: QVQLVQSGAEVKKPGSSVKVSCKASGGTFSSYAISWVRQAPGQGLEWMGRIIPILGIANYAQKFQGRVTITADKSTSTAYMELSSLRSEDTAVYYCARSGCSSTSCPSNLYYYYYGMDVWGQGTTVTVSS
VL: QSVLTQPPSVSAAPGQKVTISCSGSSSNIGNNYVSWYQQLPGTAPKLLIYDNNKRPSGIPDRFSGSKSGTSATLGITGLQTGDEADYYCGTWDSSLSALVFGGGTKLTVL
notes: as for B1
B18: FJ 10B (antibody, V domains shown)
VH: QVQLVQSGAEVKKPGESLRISCKGSGYSFTSYWISWVRQMPGKGLEWMGRIDPSDSYTNYSPSFQGHVTISADKSISTAYLQWSSLKASDTAMYYCARLDPRYGPDYYGMDVWGQGTTVTVSS
VL: AIRMTQSPSSLSASVGDRVTITCRASQSISSYLNWYQQKPGKAPKLLIHAASSLQSGVPSRFSGSGSGTDFTLTMSSLQPEDFATYYCQQSYSTPLTFGGGTKVEIR
notes: as for B1
B19: FD 7D (antibody, V domains shown)
VH: EVQLVESGAEVKKPGESLRISCKGSGYSFTSYWISWVRQMPGKGLEWMGRIDPSDSYTNYSPSFQGHVTISADKSISTAYLQWSSLKASDTAMYYCARHSDCSSTSCYFVDAFDIWGQGTMVTVSS
VL: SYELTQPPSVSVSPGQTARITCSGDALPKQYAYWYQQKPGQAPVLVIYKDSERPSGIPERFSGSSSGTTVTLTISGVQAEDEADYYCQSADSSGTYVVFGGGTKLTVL
notes: as for B1

These binders were tested against T1, SARS-CoV-2 spike glycoprotein, full-length, prefusion-stabilised, on MDCK-SIAT1 cells (SARS-CoV-2, reference sequence, UniProt P0DTC2, 986KV987 to 986PP987 | 682RRAR685 to 682GSAG685) (assay: flow cytometry on cells). Conditions: one partner purified.
T1 construct: also called MDCK-Spike

B1: binds.
B2: binds.
B3: binds.
B4: binds.
B5: binds.
B6: binds.

What follows are binders tested against T2, SARS-CoV-2 spike glycoprotein S1+S2 extracellular domain (SARS-CoV-2, reference sequence, UniProt P0DTC2) (assay: ELISA). Conditions: not given.
T2 construct: also called full-length spike glycoprotein ectodomain

Going from B7 to B1, the OD450 falls from 1.78 OD450 to 1.64 OD450.

First: B2
Second: B8
The OD450 of the first is higher: 1.2 OD450 for the first, 1.1 OD450 for the second.

Going from B9 to B3, the OD450 rises from 1.61 OD450 to 1.9 OD450.

Going from B10 to B11, the OD450 falls from 1.83 OD450 to 1.74 OD450.

Compared with B12, B13 is lower in OD450: 0.54 OD450 for the first, 0.25 OD450 for the second.

B4 and B5 are the same in OD450: 1.45 OD450 for the first, 1.45 OD450 for the second.

Going from B14 to B15, the OD450 falls from 0.26 OD450 to 0.22 OD450.

Compared with B16, B17 is higher in OD450: 0.4 OD450 for the first, 2.24 OD450 for the second.

Going from B18 to B6, the OD450 rises from 1.48 OD450 to 1.6 OD450.

Binder B19 has an OD450 of 1.44 OD450.

Source: paper PMC8130932 (PLoS Pathogens, 2021)
